# Patent US20250276092A1 (Regeneron, published 2025)
# Changes are numbered by the printed parent chain.
# B1: REGN16431 (bispecific antibody, human IgG4 S228P, kappa)
# heavy 1: QLQLQESGPGLVRPSETLSLTCSVSGASMNTNNYYWGWIRQPPGKGLEWIGSGYYNGNTYYNPSLKSRVTISVDTSKNQFSLKLNSVTAADTAVYYCARQTPPRIIGSPNIWGQGTMVTVSSASTKGPSVFPLAPCSRSTSESTAALGCLVKDYFPEPVTVSWNSGALTSGVHTFPAVLQSSGLYSLSSVVTVPSSSLGTKTYTCNVDHKPSNTKVDKRVESKYGPPCPPCPAPPVAGPSVFLFPPKPKDTLMISRTPEVTCVVVDVSQEDPEVQFNWYVDGVEVHNAKTKPREEQFNSTYRVVSVLTVLHQDWLNGKEYKCKVSNKGLPSSIEKTISKAKGQPREPQVYTLPPSQEEMTKNQVSLTCLVKGFYPSDIAVEWESNGQPENNYKTTPPVLDSDGSFFLYSRLTVDKSRWQEGNVFSCSVMHEALHNHYTQKSLSLSLGK
# heavy 2: EVQLVESGGGLVQPGGSLRLSCAASGFTFGSYGMAWVRQAPGKGLEWVSAISGSGDYTNYADSVKRRFTISRDNSKNTLYLQMSSLRAEDTAVYYCAKEKTGTTGYLYSGMDVWGQGTTVTVSSASTKGPSVFPLAPCSRSTSESTAALGCLVKDYFPEPVTVSWNSGALTSGVHTFPAVLQSSGLYSLSSVVTVPSSSLGTKTYTCNVDHKPSNTKVDKRVESKYGPPCPPCPAPPVAGPSVFLFPPKPKDTLMISRTPEVTCVVVDVSQEDPEVQFNWYVDGVEVHNAKTKPREEQFNSTYRVVSVLTVLHQDWLNGKEYKCKVSNKGLPSSIEKTISKAKGQPREPQVYTLPPSQEEMTKNQVSLTCLVKGFYPSDIAVEWESNGQPENNYKTTPPVLDSDGSFFLYSRLTVDKSRWQEGNVFSCSVMHEALHNRFTQKSLSLSPGK
# light: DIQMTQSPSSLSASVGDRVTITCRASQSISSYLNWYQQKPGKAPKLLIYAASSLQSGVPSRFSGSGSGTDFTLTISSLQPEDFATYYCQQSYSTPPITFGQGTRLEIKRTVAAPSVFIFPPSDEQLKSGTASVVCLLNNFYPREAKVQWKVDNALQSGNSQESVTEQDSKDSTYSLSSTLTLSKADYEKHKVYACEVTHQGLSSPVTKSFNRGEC
# B2: REGN16432 (bispecific antibody, human IgG4 S228P, kappa)
# heavy 1: EVQLVESGGGLVQPGGSLRLSCAASGFTFSSYAMNWVRQAPGKGLEWVSIISGTIGKTYYADSVKGRFTISRDNSKNTLYLQMNSLRGEDTAVYYCAKDTERDITGSPFDYWGQGTLVTVSSASTKGPSVFPLAPCSRSTSESTAALGCLVKDYFPEPVTVSWNSGALTSGVHTFPAVLQSSGLYSLSSVVTVPSSSLGTKTYTCNVDHKPSNTKVDKRVESKYGPPCPPCPAPPVAGPSVFLFPPKPKDTLMISRTPEVTCVVVDVSQEDPEVQFNWYVDGVEVHNAKTKPREEQFNSTYRVVSVLTVLHQDWLNGKEYKCKVSNKGLPSSIEKTISKAKGQPREPQVYTLPPSQEEMTKNQVSLTCLVKGFYPSDIAVEWESNGQPENNYKTTPPVLDSDGSFFLYSRLTVDKSRWQEGNVFSCSVMHEALHNHYTQKSLSLSLGK
# heavy 2: B1 heavy 2
# light: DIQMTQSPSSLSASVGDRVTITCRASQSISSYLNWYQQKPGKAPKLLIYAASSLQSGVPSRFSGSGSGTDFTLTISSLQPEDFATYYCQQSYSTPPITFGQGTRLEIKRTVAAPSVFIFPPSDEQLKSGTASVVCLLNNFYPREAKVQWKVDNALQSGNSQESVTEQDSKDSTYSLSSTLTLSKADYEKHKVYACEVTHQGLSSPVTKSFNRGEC
# B3: REGN16335 (bispecific antibody, human IgG4 S228P, kappa)
# heavy 1: B2 heavy 1 with P235G, V236G, A237G
# heavy 2: B1 heavy 2 with P237G, V238G, A239G
# light: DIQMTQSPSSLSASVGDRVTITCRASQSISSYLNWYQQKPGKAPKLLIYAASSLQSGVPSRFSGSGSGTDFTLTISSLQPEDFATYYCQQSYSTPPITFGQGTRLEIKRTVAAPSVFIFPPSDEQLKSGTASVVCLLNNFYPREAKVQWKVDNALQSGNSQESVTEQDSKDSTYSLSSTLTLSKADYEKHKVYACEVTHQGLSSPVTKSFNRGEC
# Tests used:
# [1] = molecular target: T1, human CD40 expressed on cells (human, UniProt P25942 21-277); assay: cell-based or functional assay
# [2] = molecular target: T1, human CD40 expressed on cells; assay: cell-based or functional assay; remark: listed apart in the source
# [3] = molecular target: T2, human CD40 extracellular domain expressed with a C-terminal myc-myc-hexahistidine tag (human); assay: ELISA, blocks 40 nM hCD40-mmH binding to coated 9His-hCD40L
# T2 construct: also called hCD40-MMH; hCD40-mmH
# Description: In the blocking assay, 9His-hCD40L was passively absorbed at a concentration of 5 μg/mL in PBS on a 96-well microtiter plate overnight at 4° C. […] In a separate 96-well microtiter plate, a fixed amount of 40 nM hCD40-mmH was pre-mixed with one of the following antibodies, at concentrations ranging from 977 pM to 1 μM in PBS+0.5% BSA: (1) anti-CD40×CD40 bispecific antibodies (REGN16431, REGN16432, REGN16634, and REGN16335); (2) parental anti-CD40 mAbs (bivalent antibodies comprising 2 fragment antigen-binding [Fab] arms identical to one of anti-CD40 Fab of anti-CD40×CD40 antibodies); (3) anti-CD40×Irrelevant antibodies (bivalent antibodies that incorporate one Fab arm identical to one of anti-CD40 Fab of anti-CD40×CD40 antibodies and another Fab arm specific to an irrelevant antigen); and (4) human IgG4 with Fc mutation isotype control antibodies (REGN7540 and REGN4513). The fixed concentration of hCD40-mmH was selected to be near the concentration (EC₅₀ value) that generated 50% of the maximal binding to the plate-adhered 9His-hCD40L. After one-hour incubation, the antibody-antigen complexes were transferred to the microtiter plate coated with 9His-hCD40L. After one hour incubation at room temperature, the plates were washed, and plate-bound hCD40-mmH protein was detected with horseradish peroxidase (HRP) conjugated goat anti-c-Myc antibody. The plates were then developed using TMB substrate solution (BD Biosciences) according to the manufacturer's recommended procedure and the absorbance at 450 nm (OD₄₅₀) was measured on a SpectraMax i3× plate reader.
# Binding data were analyzed using a sigmoidal (four-parameter logistic) dose-response model with GraphPad Prism™ software. […] The percent blocking of tested antibodies at the highest tested concentration ([…]) was calculated based on the formula shown below: […]
# [4] = molecular target: T1, human CD40 expressed on cells; assay: cell-based or functional assay; remark: listed apart in the source
# [5] = molecular target: T1, human CD40 expressed on cells; assay: cell-based or functional assay; remark: listed apart in the source
# [6] = molecular target: T2, human CD40 extracellular domain …; assay: SPR 25C, captured mAb
# Description: (§1) The equilibrium dissociation constants (KD) for anti-CD40 bivalent and bispecific monoclonal antibodies (mAbs) were determined using a real-time surface plasmon resonance (SPR)-based Biacore 4000 biosensor. All binding studies were performed in 10 mM HEPES, 150 mM NaCl, 3 mM EDTA, and 0.05% v/v surfactant Tween-20, pH 7.4 (HBS-ET) running buffer at 25° C. and 37° C. The Biacore CM5 sensor surface was first derivatized by amine coupling with a monoclonal mouse anti-human Fc antibody (REGN2567) to capture anti-CD40 bivalent parental and anti-CD40×CD40 bispecific antibodies. Different concentrations of CD40 reagents, human CD40 extracellular domain expressed with a C-terminal myc-myc-hexahistidine tag (“hCD40-MMH”; REGN3094; SEQ ID NO: 53), monkey CD40 extracellular domain expressed with a C-terminal myc-myc-hexahistidine tag (“mfCD40-MMH”; REGN3097; SEQ ID NO: 54), and mouse CD40 extracellular domain expressed with a C-terminal myc-myc-hexahistidine tag (“mCD40-MMH”; REGN3098; SEQ ID NO: 55), at concentrations ranging from 3.7 nM to 100 nM or 3.3 nM to 90 nM in a series of 3-fold dilutions prepared in HBS-ET running buffer were injected at a flow rate of […] for 4 minutes or […] for 5 minutes. The dissociation of different CD40 reagents bound to anti-CD40 bivalent parental and anti-CD40×CD40 bispecific antibodies was monitored for 10 minutes in HBS-ET running buffer. At the end of each cycle, the anti-CD40 bivalent parental and anti-CD40×CD40 bispecific antibodies capture surface was regenerated using a 12 sec injection of 20 mM H₃PO₄.
# (§2) The association rate (ka) and dissociation rate (kd) were determined by fitting the real-time binding sensorgrams to a 1:1 binding model with mass transport limitation using Scrubber 2.0c curve-fitting software. Binding dissociation equilibrium constant (KD) and dissociative half-life (t½) were calculated from the kinetic rates as: KD (M)=kd/kₐ, and t_{1/2} (min)=[ln(2)/(60*kd)].
# [7] = molecular target: T1, human CD40 expressed on cells; assay: cell-based or functional assay; remark: listed apart in the source
# [8] = molecular target: T1, human CD40 expressed on cells; assay: cell-based or functional assay; remark: listed apart in the source
# [9] = molecular target: T2, human CD40 extracellular domain …; assay: SPR 37C, captured mAb
# Description: as §1, §2
# [10] = molecular target: T1, human CD40 expressed on cells; assay: cell-based or functional assay; remark: listed apart in the source
# [11] = molecular target: T1, human CD40 expressed on cells; assay: cell-based or functional assay; remark: listed apart in the source
# [12] = molecular target: T1, human CD40 expressed on cells; assay: cell-based or functional assay; remark: listed apart in the source
# T2 sequence (chain, as listed by the source limits assumed): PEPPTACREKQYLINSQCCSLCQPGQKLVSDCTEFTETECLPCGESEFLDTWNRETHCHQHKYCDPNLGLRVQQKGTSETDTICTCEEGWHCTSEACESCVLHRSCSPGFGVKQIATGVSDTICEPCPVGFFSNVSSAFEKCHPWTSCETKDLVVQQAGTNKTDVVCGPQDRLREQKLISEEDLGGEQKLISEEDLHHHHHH
# T1 sequence (P25942 21-277): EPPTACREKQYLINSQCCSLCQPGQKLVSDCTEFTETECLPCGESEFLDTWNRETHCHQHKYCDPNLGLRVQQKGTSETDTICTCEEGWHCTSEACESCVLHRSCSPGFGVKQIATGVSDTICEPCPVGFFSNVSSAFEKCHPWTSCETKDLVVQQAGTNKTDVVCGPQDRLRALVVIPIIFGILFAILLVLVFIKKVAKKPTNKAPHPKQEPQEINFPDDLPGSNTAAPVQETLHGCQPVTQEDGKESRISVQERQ
Binder,"IC50, NFkB-luc Raji, 900 pM hCD40L [1] [M]","Max % activation, NFkB-luc Raji, no ligand [1] [%]","Max % inhibition, NFkB-luc Raji, 900 pM hCD40L [1] [%]","IC50, NFkB-luc Ramos, 500 pM hCD40L [2] [M]","Max % activation, NFkB-luc Ramos, no ligand [2] [%]","Max % inhibition, NFkB-luc Ramos, 500 pM hCD40L [2] [%]",% Blocking at highest mAb concentration [3] [%],"% max blockade relative to no mAb, IL-6, B cells, donor 1 [4] [%]","% max blockade relative to no mAb, IL-6, B cells, donor 2 [4] [%]","% max blockade relative to no mAb, IL-6, B cells, donor 3 [4] [%]","IC50, NFkB-luc THP-1, 10 nM hCD40L [5] [nM]","Max % activation, NFkB-luc THP-1, no ligand [5] [%]","Max % inhibition, NFkB-luc THP-1, 10 nM hCD40L [5] [%]",100 nM Ag Bound (RU) [6] [RU],"% max blockade relative to no mAb, IL-10, B cells, donor 1 [7] [%]","% max blockade relative to no mAb, IL-10, B cells, donor 2 [7] [%]","% max blockade relative to no mAb, IL-10, B cells, donor 3 [7] [%]","% max blockade relative to no mAb, TNFa, B cells, donor 1 [8] [%]","% max blockade relative to no mAb, TNFa, B cells, donor 2 [8] [%]","% max blockade relative to no mAb, TNFa, B cells, donor 3 [8] [%]",other results
B1,1.07e-10,13,82,8.54e-11,6,90,93,84,92.7,92.7,0.287,2,98,61.2,80.7,86.9,89.3,44.7,74.1,70.4,100 nM Ag Bound (RU) [9]: 61.2 RU
B2,1.02e-10,5,68,4.92e-11,4,94,95,83.5,92,92,0.148,6,97,56.6,81.5,94.5,90.6,53.5,68.4,69.1,100 nM Ag Bound (RU) [9]: 56.6 RU
B3,4.94e-11,9,102,3.86e-11,5,93,96,83.2,91.4,91.4,0.221,3,98,–,78.5,93.6,89.8,45,64.7,61.6,"% max blockade relative to no mAb, IL-10, assay #2, donor 1 [10]: 88.5%; % max blockade relative to no mAb, IL-10, assay #2, donor 2 [10]: 87.8%; % max blockade relative to no mAb, TNFa, assay #2, donor 1 [11]: 62.4%; % max blockade relative to no mAb, TNFa, assay #2, donor 2 [11]: 52.5%; % max blockade relative to no mAb, IL-6, assay #2, donor 1 [12]: 88.4%; % max blockade relative to no mAb, IL-6, assay #2, donor 2 [12]: 87%"
